Results on 2 molecules are retold here after article PMC3778016, “Tracking of Chromosome and Replisome Dynamics in Myxococcus xanthus Reveals a Novel Chromosome Arrangement”.

Data set [1] addresses T1, His6-ParB (Myxococcus xanthus DK1622, UniProt Q1CVJ4 1-296).
T1 sequence: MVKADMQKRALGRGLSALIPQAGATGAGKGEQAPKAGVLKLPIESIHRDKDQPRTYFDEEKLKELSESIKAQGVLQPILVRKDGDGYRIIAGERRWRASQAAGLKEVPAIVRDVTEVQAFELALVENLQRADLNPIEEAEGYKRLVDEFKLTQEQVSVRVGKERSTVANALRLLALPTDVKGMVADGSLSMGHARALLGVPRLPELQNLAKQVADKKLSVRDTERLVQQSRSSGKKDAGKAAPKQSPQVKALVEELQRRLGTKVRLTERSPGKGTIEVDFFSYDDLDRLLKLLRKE
The data set is described as follows: EMSA; 100 nM DNA, 0.1-6 uM His6-ParB, 5 uM pBluescript II SK- competitor, 5 mM Mg2+; 38 mM Hepes/NaOH pH 7.2, 38 mM NaCl, 5 mM MgCl2, 7% glycerol, 1 mM beta-mercaptoethanol, 20 min at 30 C; 6% PAGE at 4 C in 1xTBE + 5 mM MgCl2. As to conditions: protein: recombinant; tags: N-terminal His6 (pET45b+); chain copies: 2; blunt.

Data set [2] concerns the target T1, His6-ParB. Described as above. As to conditions: protein: recombinant; tags: N-terminal His6 (pET45b+); chain copies: 2; blunt. This is another data set of the same source.

B1: HEX-parS consensus (dsDNA)
DNA 1: GAGGCTTGTTCCACGTGGAACGTCGG
DNA 2: CCGACGTTCCACGTGGAACAAGCCTC
Consider B1, for which, in the data set with His6-ParB [1], the binding result is “binds”.

B2: HEX-parSmut (dsDNA)
DNA 1: GAGGCTTGCCCCACGTGGAACGTCGG
DNA 2: CCGACGTTCCACGTGGGGCAAGCCTC
For the molecule B2, the binding signal with His6-ParB [2] is ~10 fold reduced affinity vs N1.
